According to US20140274782A1, “AFFINITY REAGENTS AND METHODS FOR DETECTION, PURIFICATION, AND PROTEOMIC ANALYSIS OF METHYLATED PROTEINS” (The Board of Trustees of the Leland Stanford Junior …, priority 2013, published 2014):

T1: G9a and GLP (Homo sapiens, UniProt Q96KQ7+Q9H9B1)
T1 sequence (Q96KQ7 2-1210 limits assumed): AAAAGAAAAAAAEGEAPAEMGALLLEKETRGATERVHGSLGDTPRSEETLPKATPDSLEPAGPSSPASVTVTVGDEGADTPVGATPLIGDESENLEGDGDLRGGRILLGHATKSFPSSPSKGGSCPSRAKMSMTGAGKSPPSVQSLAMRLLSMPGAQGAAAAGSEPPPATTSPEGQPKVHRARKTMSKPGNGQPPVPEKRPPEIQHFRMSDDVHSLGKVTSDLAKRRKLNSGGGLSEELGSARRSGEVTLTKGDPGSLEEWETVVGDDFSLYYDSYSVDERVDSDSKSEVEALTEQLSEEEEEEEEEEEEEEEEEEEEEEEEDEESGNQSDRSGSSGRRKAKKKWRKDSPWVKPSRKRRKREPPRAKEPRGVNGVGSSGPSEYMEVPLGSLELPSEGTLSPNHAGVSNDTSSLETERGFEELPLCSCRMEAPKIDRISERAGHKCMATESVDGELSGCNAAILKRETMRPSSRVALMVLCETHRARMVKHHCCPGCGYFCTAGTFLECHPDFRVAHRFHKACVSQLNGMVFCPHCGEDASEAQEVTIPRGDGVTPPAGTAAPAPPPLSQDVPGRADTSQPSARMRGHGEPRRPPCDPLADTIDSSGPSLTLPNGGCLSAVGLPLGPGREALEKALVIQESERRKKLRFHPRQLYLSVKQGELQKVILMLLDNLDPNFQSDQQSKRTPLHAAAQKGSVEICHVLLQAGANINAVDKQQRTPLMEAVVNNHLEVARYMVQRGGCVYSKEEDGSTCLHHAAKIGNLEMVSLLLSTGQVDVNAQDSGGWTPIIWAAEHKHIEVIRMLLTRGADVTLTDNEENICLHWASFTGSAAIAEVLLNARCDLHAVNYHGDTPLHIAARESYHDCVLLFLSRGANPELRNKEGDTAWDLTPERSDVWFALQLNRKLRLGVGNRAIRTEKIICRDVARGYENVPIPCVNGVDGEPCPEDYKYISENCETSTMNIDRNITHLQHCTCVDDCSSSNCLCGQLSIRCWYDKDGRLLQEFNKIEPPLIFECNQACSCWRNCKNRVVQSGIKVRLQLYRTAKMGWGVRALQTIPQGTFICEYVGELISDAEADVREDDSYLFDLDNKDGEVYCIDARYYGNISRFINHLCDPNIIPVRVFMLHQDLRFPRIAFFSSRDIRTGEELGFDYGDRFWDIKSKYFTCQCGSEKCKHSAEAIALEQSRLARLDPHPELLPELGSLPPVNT
T1 sequence (Q9H9B1 2-1298 limits assumed): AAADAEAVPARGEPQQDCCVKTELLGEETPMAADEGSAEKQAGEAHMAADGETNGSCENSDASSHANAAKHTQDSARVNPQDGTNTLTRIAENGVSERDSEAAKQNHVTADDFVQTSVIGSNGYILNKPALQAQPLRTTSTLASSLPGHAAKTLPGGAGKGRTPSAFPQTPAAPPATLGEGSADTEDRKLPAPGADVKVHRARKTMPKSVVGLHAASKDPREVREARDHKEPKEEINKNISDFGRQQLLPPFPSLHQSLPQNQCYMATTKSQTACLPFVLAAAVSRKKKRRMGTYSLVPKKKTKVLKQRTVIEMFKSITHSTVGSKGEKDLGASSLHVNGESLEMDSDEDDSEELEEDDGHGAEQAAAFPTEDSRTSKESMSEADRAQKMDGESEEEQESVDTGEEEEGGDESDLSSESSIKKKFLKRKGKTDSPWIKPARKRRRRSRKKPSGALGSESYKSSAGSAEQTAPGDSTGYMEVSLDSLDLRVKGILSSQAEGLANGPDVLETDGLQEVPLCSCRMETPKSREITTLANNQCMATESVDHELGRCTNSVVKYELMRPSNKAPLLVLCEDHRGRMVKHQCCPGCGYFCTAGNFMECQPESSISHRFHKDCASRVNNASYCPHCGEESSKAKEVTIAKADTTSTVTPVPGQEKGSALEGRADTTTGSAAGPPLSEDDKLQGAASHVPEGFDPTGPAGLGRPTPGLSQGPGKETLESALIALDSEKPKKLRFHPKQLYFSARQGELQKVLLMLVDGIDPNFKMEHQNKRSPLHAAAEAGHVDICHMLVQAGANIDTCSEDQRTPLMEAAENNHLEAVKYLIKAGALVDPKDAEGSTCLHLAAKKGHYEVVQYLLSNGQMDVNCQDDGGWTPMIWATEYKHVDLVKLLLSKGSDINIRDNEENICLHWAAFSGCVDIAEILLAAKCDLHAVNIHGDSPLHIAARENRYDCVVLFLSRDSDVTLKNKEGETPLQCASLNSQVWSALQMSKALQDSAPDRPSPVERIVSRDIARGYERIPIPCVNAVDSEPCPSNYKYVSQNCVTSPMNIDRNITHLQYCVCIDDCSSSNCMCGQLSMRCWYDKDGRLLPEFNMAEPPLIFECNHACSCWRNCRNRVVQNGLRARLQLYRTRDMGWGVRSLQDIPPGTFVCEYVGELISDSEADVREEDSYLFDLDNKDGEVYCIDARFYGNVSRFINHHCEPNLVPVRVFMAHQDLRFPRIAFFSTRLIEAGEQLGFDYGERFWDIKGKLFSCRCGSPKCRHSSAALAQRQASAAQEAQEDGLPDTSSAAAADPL


Legend:
[1] = test system: 3×MBT domain of L3MBTL1; assay: Triple SILAC pull-down, 3xMBT/3xMBTD355N ratio (cytoplasmic, nuclear and chromatin fractions of 293T cells); format: binding, human; conditions: SILAC ratio, pull-down 3xMBT vs 3xMBTD355N; for 3xMBT/D355N UNC Heavy: experiment with UNC0638 in heavy SILAC media; for 3xMBT/D355N UNC Light: experiment with UNC0638 in light SILAC media;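 for all read-outs here: proteins quantified with MaxQuant, requiring at least two unique peptides and quantification in both label directions, normalized to the mean of proteins from a digested loading control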
[2] = molecular target: T1, G9a and GLP; assay: Triple SILAC pull-down after UNC0638 treatment of 293T cells, DMSO/UNC0638 ratio of protein captured by 3×MBT; format: cell-based; design: endogenous in cells; host or cells: HEK 293T; conditions: for Relative to UNC0638 UNC Heavy / Relative to UNC0638 UNC Light: SILAC ratio DMSO/UNC0638 of protein pulled down with 3xMBT; for Relative to UNC0638 UNC Heavy: UNC0638 in heavy SILAC media; for Relative to UNC0638 UNC Light: UNC0638 in light SILAC media; for Relative to UNC0638 Average: average of UNC Light and UNC Heavy experiments;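 for all read-outs here: mass spectrometry (Q-Exactive) SILAC quantitation, DMSO/UNC0638 ratio computed after subtracting 3×MBTD355N mutant pull-down background, only proteins with at least twofold 3×MBT over mutant signal considered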

Relative to UNC0638 UNC Heavy [2] [log base 2] | Relative to UNC0638 UNC Light [2] [log base 2] | Relative to UNC0638 Average [2] [log base 2] | Molecule | 3xMBT/D355N UNC Heavy [1] [log base 2] | 3xMBT/D355N UNC Light [1] [log base 2]
0.06 | 0.17 | 0.11 | RBM14 (protein, UniProt Q96PK6 1-669, looked up) RNA-binding protein 14: MKIFVGNVDGADTTPEELAALFAPYGTVMSCAVMKQFAFVHMRENAGALRAIEALHGHELRPGRALVVEMSRPRPLNTWKIFVGNVSAACTSQELRSLFERRGRVIECDVVKDYAFVHMEKEADAKAAIAQLNGKEVKGKRINVELSTKGQKKGPGLAVQSGDKTKKPGAGDTAFPGTGGFSATFDYQQAFGNSTGGFDGQARQPTPPFFGRDRSPLRRSPPRASYVAPLTAQPATYRAQPSVSLGAAYRAQPSASLGVGYRTQPMTAQAASYRAQPSVSLGAPYRGQLASPSSQSAAASSLGPYGGAQPSASALSSYGGQAAAASSLNSYGAQGSSLASYGNQPSSYGAQAASSYGVRAAASSYNTQGAASSLGSYGAQAASYGAQSAASSLAYGAQAASYNAQPSASYNAQSAPYAAQQAASYSSQPAAYVAQPATAAAYASQPAAYAAQATTPMAGSYGAQPVVQTQLNSYGAQASMGLSGSYGAQSAAAATGSYGAAAAYGAQPSATLAAPYRTQSSASLAASYAAQQHPQAAASYRGQPGNAYDGAGQPSAAYLSMSQGAVANANSTPPPYERTRLSPPRASYDDPYKKAVAMSKRYGSDRRLAELSDYRRLSESQLSFRRSPTKSSLDYRRLPDAHSDYARYSGSYNDYLRAAQMHSGYQRRM | 0.82 | 1.89
0.24 | −0.02 | 0.11 | GSR (protein, UniProt P00390 44-522, looked up) Glutathione reductase, …: MACRQEPQPQGPPPAAGAVASYDYLVIGGGSGGLASARRAAELGARAAVVESHKLGGTCVNVGCVPKKVMWNTAVHSEFMHDHADYGFPSCEGKFNWRVIKEKRDAYVSRLNAIYQNNLTKSHIEIIRGHAAFTSDPKPTIEVSGKKYTAPHILIATGGMPSTPHESQIPGASLGITSDGFFQLEELPGRSVIVGAGYIAVEMAGILSALGSKTSLMIRHDKVLRSFDSMISTNCTEELENAGVEVLKFSQVKEVKKTLSGLEVSMVTAVPGRLPVMTMIPDVDCLLWAIGRVPNTKDLSLNKLGIQTDDKGHIIVDEFQNTNVKGIYAVGDVCGKALLTPVAIAAGRKLAHRLFEYKEDSKLDYNNIPTVVFSHPPIGTVGLTEDEAIHKYGIENVKTYSTSFTPMYHAVTKRKTKCVMKMVCANKEEKVVGIHMQGLGCDEMLQGFAVAVKMGATKADFDNTVAIHPTSSEELVTLR | 2.92 | 2.32
−0.03 | 0.26 | 0.12 | PRPF38B (protein, UniProt Q5VTL8 2-546, looked up) Pre-mRNA-splicing factor 38B: ANNSPALTGNSQPQHQAAAAAAQQQQQCGGGGATKPAVSGKQGNVLPLWGNEKTMNLNPMILTNILSSPYFKVQLYELKTYHEVVDEIYFKVTHVEPWEKGSRKTAGQTGMCGGVRGVGTGGIVSTAFCLLYKLFTLKLTRKQVMGLITHTDSPYIRALGFMYIRYTQPPTDLWDWFESFLDDEEDLDVKAGGGCVMTIGEMLRSFLTKLEWFSTLFPRIPVPVQKNIDQQIKTRPRKIKKDGKEGAEEIDRHVERRRSRSPRRSLSPRRSPRRSRSRSHHREGHGSSSFDRELEREKERQRLEREAKEREKERRRSRSIDRGLERRRSRSRERHRSRSRSRDRKGDRRDRDREREKENERGRRRDRDYDKERGNEREKERERSRERSKEQRSRGEVEEKKHKEDKDDRRHRDDKRDSKKEKKHSRSRSRERKHRSRSRSRNAGKRSRSRSKEKSSKHKNESKEKSNKRSRSGSQGRTDSVEKSKKREHSPSKEKSRKRSRSKERSHKRDHSDSKDQSDKHDRRRSQSIEQESQEKQHKNKDETV | 2.44 | 2.96
−0.09 | 1.14 | 0.53 | CBR1 (protein, UniProt P16152 2-277, looked up) Carbonyl reductase [NADPH] 1: SSGIHVALVTGGNKGIGLAIVRDLCRLFSGDVVLTARDVTRGQAAVQQLQAEGLSPRFHQLDIDDLQSIRALRDFLRKEYGGLDVLVNNAGIAFKVADPTPFHIQAEVTMKTNFFGTRDVCTELLPLIKPQGRVVNVSSIMSVRALKSCSPELQQKFRSETITEEELVGLMNKFVEDTKKGVHQKEGWPSSAYGVTKIGVTVLSRIHARKLSEQRKGDKILLNACCPGWVRTDMAGPKATKSPEEGAETPVYLALLPPDAEGPHGQFVSEKRVEQW | 1.12 | 0.84
